From patent publication EP2056867B1

Assays:
scavenger receptor CD36 [1] = assay: flow cytometry on CD36-transfected CHO cells, rAv17 at 2.5 µg/ml; detected with an anti-cystatin mAb and a FITC secondary antibody; baseline 20%
scavenger receptor CD36 [2] = assay: flow cytometry on CD36-transfected CHO cells, rAv17 at 5 µg/ml; detected with an anti-cystatin mAb and a FITC secondary antibody; baseline 20%

## recombinant Acanthocheilonema viteae cystatin (rAv17)
Scavenger receptor CD36 [1]
  fluorescence positive cells: 71%
Scavenger receptor CD36 [2]
  fluorescence positive cells: 89%
